Laboratory results from PMC4823828, “A squalene synthase-like enzyme initiates production of tetraterpenoid hydrocarbons in Botryococcus braunii Race L” (Nature Communications, 2016).

Legend:
SlSS = target: T1, SlSS (Solanum lycopersicum, UniProt A0A3Q7ETS2); assay: radioactive TLC assay; type: biochemical; conditions: labelled compound (3H), 10 μM, 2 mM NADPH, 20 mM MgCl2, MOPS pH 6.8, 37 °C
T1 construct: gene SQS1; SlSS delta387-411: C-terminal transmembrane domain deleted, N-terminal 6xHis (pET28a), E. coli BL21(DE3), Ni-NTA; NM_001247787 assigned to SlSS by judgement

LSS (SS from race L) = target: T2, LSS (SS from race L) (Botryococcus braunii, UniProt A0A144YEA5); assay: GC-MS product assay; radioactive TLC assay; type: biochemical; conditions: 10 μM substrate in radioactive assay; 2 mM NADPH, 20 mM MgCl2, MOPS pH 6.8, 37 °C; product squalene
T2 construct: LSS delta399-462: C-terminal transmembrane domain deleted, N-terminal 6xHis (pET28a), E. coli BL21(DE3), Ni-NTA

BSS (SS from race B) = target: T3, BSS (SS from race B) (Botryococcus braunii, UniProt Q9SDW9); assay: radioactive TLC assay; type: biochemical; conditions: labelled compound (3H), 10 μM, 2 mM NADPH, 20 mM MgCl2, MOPS pH 6.8, 37 °C
T3 construct: BSS delta399-461: C-terminal transmembrane domain deleted, N-terminal 6xHis (pET28a), E. coli BL21(DE3), Ni-NTA

SSL-2 = target: T4, SSL-2 (Botryococcus braunii, UniProt G0Y287); assay: radioactive TLC assay; type: biochemical; conditions: labelled compound (3H), 10 μM; 2 mM NADPH, 20 mM MgCl2, MOPS pH 6.8, 37 °C; product lycopaoctaene (minor)
T4 construct: SSL-2 delta392-465: C-terminal transmembrane domain deleted, N-terminal 6xHis (pET28a), E. coli BL21(DE3), Ni-NTA

[1] = target: T5, LOS (lycopaoctaene synthase) (Botryococcus braunii, UniProt A0A142ZC57); assay: GC-MS of lycopaoctaene product from GGPP; type: biochemical; conditions: 20 nM squalestatin; GGPP substrate, NADPH, Mg2+, pH 6.8, 37 °C
T5 construct: LOS delta391-444: C-terminal transmembrane domain deleted from 444-residue protein, N-terminal 6xHis (pET28a), E. coli BL21(DE3), Ni-NTA

[2] = substrate: CC(C)=CCC/C(C)=C/CC/C(C)=C/CC/C(C)=C/COP(=O)(O)OP(=O)(O)O; assay: radioactive steady-state assay, n-hexane extraction, TLC, scintillation counting; type: biochemical, Botryococcus braunii; conditions: labelled compound (3H), 2 mM NADPH, 20 mM MgCl2, MOPS pH 6.8, 37 °C, 100 nM enzyme
From the text: (§1) radioactive steady-state assay, n-hexane extraction, TLC, scintillation counting on LOS (lycopaoctaene synthase)

[3] = substrate: CC(C)=CCC/C(C)=C/CC/C(C)=C/CO[P@@](=O)(O)OP(=O)(O)O; assay: as above; type: biochemical, Botryococcus braunii; conditions: labelled compound (3H), 2 mM NADPH, 20 mM MgCl2, MOPS pH 6.8, 37 °C, 100 nM enzyme
From the text: as §1

[4] = substrate: C/C(=C\COP(=O)(O)OP(=O)(O)O)CCC[C@H](C)CCC[C@H](C)CCCC(C)C; assay: as above; type: biochemical, Botryococcus braunii; conditions: labelled compound (3H), 2 mM NADPH, 20 mM MgCl2, MOPS pH 6.8, 37 °C, 100 nM enzyme
From the text: as §1

T1 sequence (A0A3Q7ETS2 entry or part of it): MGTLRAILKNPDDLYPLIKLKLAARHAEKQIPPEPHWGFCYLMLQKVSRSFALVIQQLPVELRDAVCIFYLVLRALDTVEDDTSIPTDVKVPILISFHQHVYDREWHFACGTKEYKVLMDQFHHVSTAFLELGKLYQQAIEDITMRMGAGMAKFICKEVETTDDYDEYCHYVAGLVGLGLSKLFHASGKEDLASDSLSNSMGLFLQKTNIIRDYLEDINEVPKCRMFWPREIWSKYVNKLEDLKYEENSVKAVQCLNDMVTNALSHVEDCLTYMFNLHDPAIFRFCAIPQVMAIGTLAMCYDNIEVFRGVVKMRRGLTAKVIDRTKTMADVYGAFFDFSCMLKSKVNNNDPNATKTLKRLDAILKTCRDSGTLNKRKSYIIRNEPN
T3 sequence (Q9SDW9 1-398): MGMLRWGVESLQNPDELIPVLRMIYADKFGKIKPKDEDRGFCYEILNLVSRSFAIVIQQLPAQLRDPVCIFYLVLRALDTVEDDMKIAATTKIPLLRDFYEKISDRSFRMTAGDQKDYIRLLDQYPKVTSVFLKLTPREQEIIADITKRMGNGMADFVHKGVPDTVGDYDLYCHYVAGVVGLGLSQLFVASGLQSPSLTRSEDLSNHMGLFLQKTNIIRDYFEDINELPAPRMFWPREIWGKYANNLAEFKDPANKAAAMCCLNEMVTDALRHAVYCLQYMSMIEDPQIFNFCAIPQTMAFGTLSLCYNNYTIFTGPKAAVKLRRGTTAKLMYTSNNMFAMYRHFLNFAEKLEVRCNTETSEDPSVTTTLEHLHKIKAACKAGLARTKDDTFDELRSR
T2 sequence (A0A144YEA5 1-398): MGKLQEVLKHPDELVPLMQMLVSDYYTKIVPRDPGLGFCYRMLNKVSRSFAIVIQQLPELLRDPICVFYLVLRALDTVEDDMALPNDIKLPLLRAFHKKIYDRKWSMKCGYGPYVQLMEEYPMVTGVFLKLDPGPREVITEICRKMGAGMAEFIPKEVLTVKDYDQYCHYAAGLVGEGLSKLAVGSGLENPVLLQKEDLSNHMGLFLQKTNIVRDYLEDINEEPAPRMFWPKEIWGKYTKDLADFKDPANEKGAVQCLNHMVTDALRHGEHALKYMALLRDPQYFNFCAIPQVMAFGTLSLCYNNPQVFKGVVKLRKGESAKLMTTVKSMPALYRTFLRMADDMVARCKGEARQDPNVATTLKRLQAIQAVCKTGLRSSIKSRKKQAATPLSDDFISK
T4 sequence (G0Y287 1-391): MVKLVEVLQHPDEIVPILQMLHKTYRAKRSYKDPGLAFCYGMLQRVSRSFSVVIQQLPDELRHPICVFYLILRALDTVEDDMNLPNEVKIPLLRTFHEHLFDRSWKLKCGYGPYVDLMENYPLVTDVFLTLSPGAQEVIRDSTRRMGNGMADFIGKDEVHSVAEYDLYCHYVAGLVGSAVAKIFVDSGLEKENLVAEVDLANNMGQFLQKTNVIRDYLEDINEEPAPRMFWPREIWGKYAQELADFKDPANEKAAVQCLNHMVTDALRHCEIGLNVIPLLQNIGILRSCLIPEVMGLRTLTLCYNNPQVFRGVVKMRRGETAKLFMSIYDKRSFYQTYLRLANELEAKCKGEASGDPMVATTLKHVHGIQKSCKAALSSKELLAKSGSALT

CC(C)=CCC/C(C)=C/CC/C(C)=C/COP(=O)(O)OP(=O)(O)O [FPP]
radioactive TLC assay (SlSS; product squalene): the typical SS enzymes display SS activity as their main catalytic function
GC-MS product assay; radioactive TLC assay (LSS (SS from race L)): LSS was shown to yield squalene as its sole product in an in vitro assay
radioactive TLC assay (BSS (SS from race B); product squalene): the typical SS enzymes display SS activity as their main catalytic function

CC(C)=CCC/C(C)=C/CC/C(C)=C/CC/C(C)=C/COP(=O)(O)OP(=O)(O)O [GGPP]
radioactive TLC assay (SSL-2): allowing SSL-2 and SSL-1 plus SSL-2 to use GGPP to generate minor amounts of lycopaoctaene

C=C(CC[C@]12O[C@H](C(=O)O)[C@@](O)(C(=O)O)[C@](C(=O)O)(O1)[C@H](OC(=O)/C=C/[C@@H](C)C[C@@H](C)CC)[C@H]2O)[C@@H](OC(C)=O)[C@H](C)Cc1ccccc1 [squalestatin]
strong inhibition at 20 nM [1]: LOS is strongly inhibited by squalestatin (Fig. 5c), a potent SS inhibitor

C/C(=C\COP(=O)(O)OP(=O)(O)O)CCC[C@H](C)CCC[C@H](C)CCCC(C)C [PPP]
radioactive TLC assay (SlSS; product lycopadiene (minute)): BSS and SlSS also using PPP to produce minute amounts of lycopadiene
radioactive TLC assay (BSS (SS from race B); product lycopadiene (minute)): BSS and SlSS also using PPP to produce minute amounts of lycopadiene

B1: LOS (lycopaoctaene synthase) (Botryococcus braunii) (protein)
chain: MKYTDFLAHPDEIIPTIRMMYADYRLKNMEIKDPSVRFCYNMLNRVSRSFAMVIQQLPVELRDATCVFYLILRALDTVEDDMAIPKEVKIPMLRTFHEHLSDRSWKIKCGYGPYVDLMDNYPLVTDVYLRFDEGTKAVIKDITRRMGNGMADFIDLDEVLTIPQYDLYCHYVAGLCGIGMCKLFVDSGLEKEDLVAEEDLANQMGLFLQKNNIVRDYLEDINELPAPRMFWPKEIWGNYAKQLDEFKDPKNLDKAMLCLNHMVTDALRHCEVGLRSLSLLHNPNILRAVLIPQVMGVRTLTLVYNNPEVFRGVVKMRRGETAKIFVTTTSKLSFFRTYLQFANEMEQKCLTEAKNDPMVALTLKRVQGVQAACRAAIVKAEIAEGAKGPS
notes: LOS delta391-444: C-terminal transmembrane domain deleted from 444-residue protein, N-terminal 6xHis (pET28a), E. coli BL21(DE3), Ni-NTA
Km [2]: 70 ± 20 µM
kcat [2]: 0.0114 s⁻¹
kcat/Km [2]: 165 M⁻¹ s⁻¹
Km [3]: 130 ± 20 µM
kcat [3]: 0.0205 s⁻¹
kcat/Km [3]: 162 M⁻¹ s⁻¹
Km [4]: 110 ± 10 µM
kcat [4]: 0.00116 s⁻¹
kcat/Km [4]: 10.3 M⁻¹ s⁻¹
